Data published in paper PMC2755179 (Autophagy, 2008).

T1: KSHV Bcl-2 (Kaposi's sarcoma-associated HV, UniProt P90504)
T1 sequence: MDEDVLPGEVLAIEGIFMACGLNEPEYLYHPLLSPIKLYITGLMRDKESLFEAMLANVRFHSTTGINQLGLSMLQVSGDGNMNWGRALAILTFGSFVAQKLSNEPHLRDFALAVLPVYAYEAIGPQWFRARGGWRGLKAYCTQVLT

T2: γHV68 M11 (murine γ-herpesvirus 68, UniProt P89884 1-136)
T2 sequence: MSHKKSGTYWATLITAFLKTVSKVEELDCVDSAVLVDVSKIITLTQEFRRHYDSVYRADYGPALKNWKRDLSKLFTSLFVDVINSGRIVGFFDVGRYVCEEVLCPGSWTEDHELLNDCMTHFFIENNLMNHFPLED

B1: MBP•Beclin 1(1–135)•His6 (domain or fragment, human, UniProt Q14457 1-135, looked up)
chain: MEGSKTSNNSTMQVSFVCQRCSQPLKLDTSFKILDRVTIQELTAPLLTTAQAKPGETQEEETNSGEEPFIETPRQDGVSRRFIPPARMMSTESANSFTLIGEASDGGTMENLSRRLKVTGDLFDIMSGQTDVDHP

Columns and labels:
Assay in all cases: ITC
[1] = target: T1, KSHV Bcl-2
[2] = target: T2, γHV68 M11
[3] = target: cellular Bcl-2 (UniProt P10415 1-211)
Sequence of cellular Bcl-2 (P10415 1-211): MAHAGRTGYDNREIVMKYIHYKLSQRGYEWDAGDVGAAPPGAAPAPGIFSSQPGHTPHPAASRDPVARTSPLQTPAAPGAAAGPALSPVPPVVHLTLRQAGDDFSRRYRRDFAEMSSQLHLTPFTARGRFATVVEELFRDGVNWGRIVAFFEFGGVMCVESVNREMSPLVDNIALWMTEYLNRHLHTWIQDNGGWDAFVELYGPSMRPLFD

Binder	Kd [1] [µM]	Kd [2] [nM]	Kd [3] [µM]
B1	54.2	200	8.6
DGGTMENLSRRLKVTGDLFDIMSGQT (peptide, UniProt Q14457 105-130, looked up) [Beclin 1 BH3 domain]	13.3	1100	8
